Experimental data as given in paper doi:10.1101/591263.

What follows are substances tested on dSpCas9-GFP (Streptococcus pyogenes) (assay: MST). Details: MST: 20 mM HEPES pH 7.5, 150 mM KCl, 1 mM DTT, 10 mM MgCl2.
Substance EMX1 off-target (30 bp) with EMX1 sgRNA has a Kd of 27.2 nM.
For VEGFA3 target (30 bp) with VEGFA3 sgRNA, the Kd was 49.6 nM.
EMX1 target (30 bp) with EMX1 sgRNA gave a Kd of 10.9 nM.
Work on “VEGFA3 off-target (30 bp) with VEGFA3 sgRNA” yielded a Kd of 142 nM.
